From patent US6462173B1, “Inhibitors of phosphoserine and phosphothreonine-proline-specific isomerases” (Max-Planck-Gesellschaft zur Forderung der, priority 1997, dated 2002)

Legend:
Format in all cases: biochemical
mitotic GST-Cdc25 = molecular target: T1, mitotic GST-Cdc25 (Xenopus laevis, UniProt P30309); test: Cdc25 activity assay (activation of cyclin B/Cdc2, H1 kinase); settings: 0.67 μM protein, 1 μM mitotic Cdc25
T1 construct: made in house
T1 sequence (P30309 1-550): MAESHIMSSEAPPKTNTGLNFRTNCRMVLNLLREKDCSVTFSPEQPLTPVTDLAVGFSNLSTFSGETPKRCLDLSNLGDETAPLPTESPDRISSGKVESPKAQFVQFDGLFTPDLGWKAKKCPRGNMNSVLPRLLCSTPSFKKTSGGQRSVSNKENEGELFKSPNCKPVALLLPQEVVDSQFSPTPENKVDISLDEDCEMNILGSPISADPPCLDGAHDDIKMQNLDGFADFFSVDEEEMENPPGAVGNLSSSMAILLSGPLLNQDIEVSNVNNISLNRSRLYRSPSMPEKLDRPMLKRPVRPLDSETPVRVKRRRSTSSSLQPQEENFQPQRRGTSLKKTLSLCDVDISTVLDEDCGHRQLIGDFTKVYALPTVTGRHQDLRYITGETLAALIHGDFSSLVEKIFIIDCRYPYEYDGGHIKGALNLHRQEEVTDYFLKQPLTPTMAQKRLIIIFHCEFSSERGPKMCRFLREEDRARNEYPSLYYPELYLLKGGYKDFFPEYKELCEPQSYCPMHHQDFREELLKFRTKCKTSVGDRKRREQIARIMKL
Procedure: (§1) Cdc2 was assayed using histone H1 as a substrate, as previously described in Murray, 1991; Lu and Hunter, (1995).
A subthreshold concentration of GST cyclin B (10 μg) was added to 1 ml of Xenopus interphase extract for thirty min at room temperature (Solomon, M. J., M. Glotzer, T. H. Lee, M. Philippe and M. W. Kirschner, Cell 63:1013-1024 (1990). This was diluted 8 fold in XB+3 mM DTT, rotated for 1 h with 3 ml of GST agarose beads, washed 3 times in XBIP (XB+500 mM NaCl and 1% NP40+2 mM DTT), washed 2 times (once overnight) in EB (80 mM β glycerol phosphate, 15 mM EGTA, 15 mM MgCl2)+2 mM DTT, 500 mM NaCl and 1% NP40, and finally twice with EB+10 mM DTT. These Cdc25 assay beads were stored at 4° C. for up to 1 month. Mitotic GST-Cdc25 was purified by incubating 22 μg of GST-Cdc25, in a Xenopus mitotic extract for 30 min at 23° C., this was diluted 8 fold in XB and rotated with 50 μl of glutathione-Agarose beads (Sigma) for 1 hr at 4° C. The beads were washed 5 times in XB-IP, twice in XB+2 mM DTT and eluted in 25 μl XB+2 mM reduced GSH. The final concentration of Mitotic GST-Cdc25 was 0.36 mg/ml. […] Phosphoimager analysis of the H1 kinase assays were quantified by the Molecular Dynamics ImageQuant 3.3 software. […] The most reproducible way to quantify the Cdc25 activity in this assay was by determining the endpoint dilution of Cdc25 which could activate Cdc2. […]

Xenopus egg extracts = test: Entry into mitosis in Xenopus CSF egg extracts; settings: 10 or 40 μM, added 15 min after Ca2+
Procedure: Xenopus CSF extracts were prepared from unfertilized eggs, as previously described (Murray, 1991) and used immediately. To examine the effect of Pin1 on mitotic entry, a fresh CSF extract containing demembranated sperm (150/μl) and rhodamine tubulin (2 μg/ml) was activated by addition of 0.4 mM calcium chloride for 15 min, before the indicated concentrations of various Pin1 proteins were added and mitotic entry was followed for 2 h by nuclear morphology, nuclear envelope breakdown, spindle formation and Cdc2 activity, as described previously (Murray, A. W., Methods Cell Biol 36:581-605 (1991)). The cell cycle state of nuclei within the extracts were over 90% synchronous and typical nuclei were photographed.
To examine whether increasing the concentration of Pin1 has similar biological effects in Xenopus, Pin1 or Pin1 mutants were injected into one cell of 2 cell stage embryos and allowed the embryos to develop for 3 h (about 5 divisions). […] A similar concentration (4 μM final) of either Pin1 mutant had little effect on the cell cycle. […] In contrast, higher concentrations of the mutant proteins were needed to block the cell cycle (FIG. 1). […] In contrast, the same extracts containing 40 μM of either BSA or the mutant Pin1 proteins entered mitosis by 70 to 80 min as detected by nuclear envelope breakdown, spindle formation and high histone H1 kinase activity. […]

cyclin B/Cdc2 = molecular target: T2, cyclin B/Cdc2 (Xenopus laevis, UniProt P35567); test: Activity of dephosphorylated-active cyclin B/Cdc2; settings: same conditions as Cdc25 assay
T2 construct: from tissue; host or cells: Xenopus interphase egg extract (Cdc2); recombinant GST cyclin B added
T2 sequence (P35567 whole entry): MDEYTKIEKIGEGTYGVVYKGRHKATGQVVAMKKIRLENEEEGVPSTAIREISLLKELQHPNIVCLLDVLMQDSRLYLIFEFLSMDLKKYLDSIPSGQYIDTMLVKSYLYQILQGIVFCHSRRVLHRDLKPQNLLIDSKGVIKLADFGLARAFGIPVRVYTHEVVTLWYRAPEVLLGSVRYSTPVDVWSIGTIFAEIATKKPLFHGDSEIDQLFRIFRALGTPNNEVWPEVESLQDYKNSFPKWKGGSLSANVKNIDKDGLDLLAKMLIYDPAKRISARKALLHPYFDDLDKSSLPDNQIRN
T2 sequence (P07818 whole entry partner): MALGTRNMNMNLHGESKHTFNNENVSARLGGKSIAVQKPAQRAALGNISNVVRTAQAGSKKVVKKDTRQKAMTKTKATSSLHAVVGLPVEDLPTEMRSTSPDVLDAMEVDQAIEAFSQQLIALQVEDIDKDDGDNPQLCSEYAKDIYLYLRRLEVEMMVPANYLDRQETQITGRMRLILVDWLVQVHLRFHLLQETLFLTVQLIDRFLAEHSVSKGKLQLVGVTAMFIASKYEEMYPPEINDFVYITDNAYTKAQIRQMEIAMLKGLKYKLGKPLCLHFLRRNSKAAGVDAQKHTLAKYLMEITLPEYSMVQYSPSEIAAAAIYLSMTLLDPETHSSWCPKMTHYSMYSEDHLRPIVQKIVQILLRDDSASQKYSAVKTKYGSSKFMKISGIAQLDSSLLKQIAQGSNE
Procedure: as §1
Therefore, we tested whether Pin1 could affect the physiological activity of Cdc25, which is to dephosphorylate and activate the cyclin B/Cdc2 complex. To generate the mitotically phosphorylated form of Cdc25, GST-Cdc25 was incubated in Xenopus mitotic extracts, affinity purified on glutathione agarose beads and eluted. […] This offers one explanation for the ability of Pin1 to inhibit mitotic entry.

Pin1: essential mitotic peptidyl-prolyl cis-trans isomerase, recombinant protein
effect on Cdc25 activity (mitotic GST-Cdc25): mitotic Cdc25 failed to activate the Cdc2 complex | entry into mitosis (Xenopus egg extracts): completely blocked entry into mitosis | effect on cdc2 activity (cyclin B/Cdc2): Neither Pin1 nor the Pin1 mutant had any effect on cdc2 activity
